From US20020142955

Experiments:
[1] = tested on: Mcc-Pro-Leu-Gly-Pro-D-Lys(DNP)
Suc-βAla-Leu-Tyr-Leu-Dox = tested on: T1, Suc-βAla-Leu-Tyr-Leu-Dox
T1 sequence: XLYL

partially purified HeLa cell trouase (HeLa cell anion exchange fraction pool, F1), sequence (chain, as listed by the source): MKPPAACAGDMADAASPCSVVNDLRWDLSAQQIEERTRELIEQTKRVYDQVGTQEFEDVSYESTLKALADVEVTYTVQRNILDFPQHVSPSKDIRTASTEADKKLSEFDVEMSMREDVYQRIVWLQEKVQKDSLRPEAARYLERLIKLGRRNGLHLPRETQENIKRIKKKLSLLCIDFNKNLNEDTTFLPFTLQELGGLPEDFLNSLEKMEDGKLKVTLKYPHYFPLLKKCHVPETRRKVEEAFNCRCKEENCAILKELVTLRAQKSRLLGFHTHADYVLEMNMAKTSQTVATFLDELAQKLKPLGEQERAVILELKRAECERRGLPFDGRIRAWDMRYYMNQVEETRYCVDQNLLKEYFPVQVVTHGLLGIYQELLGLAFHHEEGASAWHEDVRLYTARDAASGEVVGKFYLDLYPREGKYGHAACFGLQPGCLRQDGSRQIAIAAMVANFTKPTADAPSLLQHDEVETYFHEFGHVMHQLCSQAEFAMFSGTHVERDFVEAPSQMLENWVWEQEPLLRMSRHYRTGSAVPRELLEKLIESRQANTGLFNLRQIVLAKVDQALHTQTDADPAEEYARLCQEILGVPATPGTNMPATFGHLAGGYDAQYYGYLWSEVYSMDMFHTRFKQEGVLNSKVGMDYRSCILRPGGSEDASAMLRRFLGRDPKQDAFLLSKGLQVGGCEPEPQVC

“partially purified HeLa cell trouase (HeLa cell anion exchange fraction pool, F1)” was tested, and the rate of hydrolysis (Table 1, (F1)) [1] was 1.5, the “extent of cleavage (HPLC), fold of that of Suc-βAla-Leu-Ala-Leu-Dnr” value (Suc-Ala-Leu-Ala-Leu-Dnr) was “only 0.6 fold that of the P2 β-alanine compound” and the rate of hydrolysis (Table 1, (F1)) (Suc-Ile-Ala-Leu-Dox) was 0. For the same substance, the rate of hydrolysis (Table 1, (F1)) (Suc-Ile-NmAla-Leu-Dox) was 0, the rate of hydrolysis (Table 1, (F1)) (Suc-Leu-Ala-Gly-Dox) was 0.4 and the rate of hydrolysis (Table 1, (F1)) (Suc-Leu-Ala-Leu-Dox) was 0.78. For the same substance, the rate of hydrolysis (Table 1, (F1)) (Suc-Leu-NmAla-Leu-Dox) was 0, the rate of hydrolysis (Table 1, (F1)) (Suc-Met-Ala-Leu-Dox) was 0.49 and the rate of hydrolysis (Table 1, (F1)) (Suc-βAla-Ile-Ala-Leu-Dox) was 0.025. It also gave a rate of hydrolysis (Table 1, (F1)) (Suc-βAla-Leu-Ala-Leu-Dox) of 1.
purified Porcine Kidney CD10 showed a % hydrolysis/10 hr (% hydrolysis/10 hr) (Suc-βAla-Leu-Ala-Leu-Dox) of 10.9, a Fraction hydrolyzed relative to standard (Suc-βAla-Leu-Ala-Leu-Dox) of 1 and a % hydrolysis/10 hr (% hydrolysis/10 hr) (Suc-βAla-Leu-Tyr-Leu-Dox) of 0. For the same substance, the Fraction hydrolyzed relative to standard (Suc-βAla-Leu-Tyr-Leu-Dox) was 0.
